Substrate in the data set: COC(=O)/C=C/c1ccc(O)c(OC)c1
In words: HPLC-UV of released ferulic acid, nonlinear Hill fit. It is filed as biochemical, Bacillus pumilus. The note with it: 0.1-8 mmol/L substrate, 50 mmol/L Tris-HCl pH 9.0, 50 °C.

B1: BpFAE (Bacillus pumilus) (protein)
chain: MNLQEQIKIAASLRQPAEGSLPSQSELKPVHPPEVNKMEYDIPTSAGETKVWIFKPVNTSKQPLPVFVNLHGGGFILGSAEMDNHWCPVIADRAQCIVVNVEYQLAPEHPFPAALHECYDVLKWLYEHPDELQIDPNRVAIGGHSAGGNLATAACLLNIQKGNPVPIVYQVLDYPPLDLATDPAEKPAFEEAIPVEMARLFNAFYLQGQDPHNPLVSPIFADRSSLAQLPPALVITAERDSLAQEAEQYAEKLKEAGVDVTYRQFKGVPHAFTHAGDLEIAEEAWHLMSDQLKKAFE
notes: C-terminal 6xHis tag (removal not mentioned); expressed in B. subtilis WB800 from pMA5 (NdeI/BamHI); forward primer reads […]; (ATG of the NdeI site followed by a second ATG)
Take B1: the Km came out at 950 µM and the kcat was determined as 514.91 s⁻¹.

The term Km denotes the concentration of substrate that gives half-maximal velocity. What is called kcat is the number of substrate molecules converted per active site and unit of time at saturation.
